Assay [1] addresses T1, P6SH.
T1 chain: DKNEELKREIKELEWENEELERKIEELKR
Kind of assay: two-hybrid library CCmax.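 Further: natural log of median RNA to DNA barcode read ratio; higher means stronger binding.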 The following applies: mean of both orientations.

The next assay has as its target T2, P7SH.
T2 chain: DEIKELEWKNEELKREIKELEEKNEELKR
Description: two-hybrid library CCNG1.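 Further: natural log of median RNA to DNA barcode read ratio; higher means stronger binding.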

A further assay deals with T3, P5SH.
T3 chain: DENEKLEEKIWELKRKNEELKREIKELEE
Kind of assay: two-hybrid library CCNG1.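 Further: natural log of median RNA to DNA barcode read ratio; higher means stronger binding.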

Assay [2] deals with T1, P6SH. Description: two-hybrid library CCNG1.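 Further: natural log of median RNA to DNA barcode read ratio; higher means stronger binding.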
The target in a further assay is T4, P8SH.
T4 chain: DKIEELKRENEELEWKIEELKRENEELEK
Description: two-hybrid library CCNG1.

The next assay deals with T5, P2-AA-1HAA-D.
T5 chain: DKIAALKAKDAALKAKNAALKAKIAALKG
Kind of assay: two-hybrid library CCmax. The following applies: mean of both orientations.

Another assay has as its target T6, P2-AA.
T6 chain: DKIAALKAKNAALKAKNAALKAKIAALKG
Description: two-hybrid library CCmax. The following applies: mean of both orientations.

The next assay concerns the target T7, P2-AA-1HAA-S.
T7 chain: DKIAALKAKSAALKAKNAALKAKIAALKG
Kind of assay: two-hybrid library CCmax. The settings on record: mean of both orientations.

The next assay concerns the target T8, P2-AA-1HAA-I.
T8 chain: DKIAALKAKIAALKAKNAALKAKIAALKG
Description: two-hybrid library CCmax. The following applies: mean of both orientations.

A further assay concerns the target T9, P2-AA-1HAA-T.
T9 chain: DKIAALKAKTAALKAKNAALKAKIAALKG
Description: two-hybrid library CCmax. The settings on record: mean of both orientations.

Another assay addresses T10, P2-AA-1HAA-L.
T10 chain: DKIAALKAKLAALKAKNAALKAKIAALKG
Kind of assay: two-hybrid library CCmax. The settings on record: mean of both orientations.

The next assay addresses T11, P2-AA-1HAA-R.
T11 chain: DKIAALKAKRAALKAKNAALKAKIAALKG
Description: two-hybrid library CCmax. The settings on record: mean of both orientations.

Another assay addresses T12, P2-AA-1HAA-K.
T12 chain: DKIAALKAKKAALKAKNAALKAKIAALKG
Kind of assay: two-hybrid library CCmax. The following applies: mean of both orientations.

Another assay concerns the target T13, Core_NIII-es_KKEK.
T13 chain: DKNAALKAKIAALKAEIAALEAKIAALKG
Description: two-hybrid library CCmax. The following applies: mean of both orientations.

B1: P5SH (peptide)
chain: DENEKLEEKIWELKRKNEELKREIKELEE
In the case of B1, the interaction score with P6SH [1] is 0.801; in the assay with P7SH it was -0.619; in the assay with P5SH it was -0.706; with P6SH [2], 1.84; with P8SH, 0.809.

B2: P1-AA-1HAA-D (peptide)
chain: DEIAALEAEDAALEAENAALEAEIAALEG
On to B2, for which the interaction score with P2-AA-1HAA-D came to 0.443; with P2-AA it was 2.18; with P2-AA-1HAA-S it was 1.57; with P2-AA-1HAA-I, 1.89; with P2-AA-1HAA-T, 1.59; with P2-AA-1HAA-L, 2.16. Moreover, the interaction score with P2-AA-1HAA-R was found to be 1.66; with P2-AA-1HAA-K it was 1.56.

B3: Core_NIII-es_EEKE (peptide)
chain: DENAALEAEIAALEAKIAALKAEIAALEG
Take B3: the interaction score with Core_NIII-es_KKEK is 2.17.
